The results in this text go back to article PMC3726423.

One series has as its target aNOP10 (P. abyssi) (UniProt Q9V0E3).
Series [1] concerns the target aNOP10 Y41A/Y44A (P. abyssi) (UniProt Q9V0E3).
Another series has as its system aCBF5. The experiment in a line: EMSA. To be noted: EMSA: 150 mM KCl, 1.5 mM MgCl2, 0.2 mM EDTA, 20 mM HEPES pH 7.9, 65 C 10 min, 50 fmol sRNA, 200 nM proteins (Kd: 50-400 nM aCBF5); fluorescence: 300 mM NaCl …. In general terms: A gel shift assay detects complexes by their altered migration in electrophoresis.
Series [2] deals with aCBF5;aNOP10 Y41A/Y44A (Y);L7Ae (Pyrococcus abyssi;Pyrococcus abyssi) (UniProt P62008). The experiment in a line: EMSA. The settings on record: radiolabeled substrate, excess unlabeled sRNP; EMSA: 150 mM KCl, 1.5 mM MgCl2, 0.2 mM EDTA, 20 mM HEPES pH 7.9, 65 C 10 min, 50 fmol sRNA, 200 nM proteins (Kd: 50-400 nM aCBF5); fluorescence: 300 mM NaCl ….
The target of series [3] is aCBF5;aNOP10;L7Ae H70A/L74A/E77A (HLE) H65A;L69A;E72A (Pyrococcus abyssi;Pyrococcus abyssi) (UniProt P62008). The experiment in a line: EMSA. The settings on record: radiolabeled substrate, excess unlabeled sRNP; EMSA: 150 mM KCl, 1.5 mM MgCl2, 0.2 mM EDTA, 20 mM HEPES pH 7.9, 65 C 10 min, 50 fmol sRNA, 200 nM proteins (Kd: 50-400 nM aCBF5); fluorescence: 300 mM NaCl ….

Sequence of aNOP10 (P. abyssi) (Q9V0E3 whole entry): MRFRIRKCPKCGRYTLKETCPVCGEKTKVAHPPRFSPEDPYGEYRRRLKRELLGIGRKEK
Sequence of aNOP10 Y41A/Y44A (P. abyssi) (Q9V0E3 whole entry Y41A/Y44A): as the sequence (Q9V0E3 whole entry) above, with Y41A, Y44A counted along it

In the series with aNOP10 (P. abyssi), “L7Ae (from UniProt P62008 1-123) (natural protein)” gave a δ(Δε): decrease of the RNA CD signal at λmax on addition of L7Ae to the aCBF5-aNOP10-Pab21 complex (M^−1.cm^−1 per nt) of -1.21. In addition, the δ(Δε): decrease of the RNA CD signal at λmax on addition of wild-type L7Ae to the aCBF5-aNOP10(Y41A/Y44A)-Pab21 complex (M^−1.cm^−1 per nt) in series [1] is -0.82. The Kd is a measure of binding affinity in units of concentration. The substance “GGGGAUCCCCUCCCCUCCCGCCCUCUCCGGGGAAUCGUGAACCGGGGGUUCCGGGGGAGGGGACAGU [Pab21P191 chimera]” returned a Kd in the series with aCBF5 of 200 nM. Consider Pab21 guide + substrate RNA, for which the binding signal (fold decrease of CII') in series [2] and in series [3] was 2 each time. Regarding “L7Ae triple mutant H70A/L74A/E77A (from UniProt P62008 1-123) (natural protein)”, the δ(Δε): decrease of the RNA CD signal at λmax on addition of L7Ae H70A/L74A/E77A to the wild-type aCBF5-aNOP10-Pab21 complex (M^−1.cm^−1 per nt) in the series with aNOP10 (P. abyssi) is -0.825. In turn, “GGGUAAUGGGGCCCGGCUCUCACACCUCCGGGAUCAGUGACCGGAGGGCGGUCGCCGGGCCUACACCU [Pab91P121 chimera]” had a dissociation constant (Kd) in the series on aCBF5 of 200 nM. For “GGGGAUGGGCCCGGCUCCCGCCCUCUCCGGGGAAUCGUGAACCGGGGGUUCCGGCCGGGCCUACAGU [Pab21 H/ACA sRNA]”, in the series on aCBF5, the Kd was found to be 125 nM.
